“Also recorded” adds a separate entry of the source.
Tests used:
β1 integrin, TLNKO cells = experiment: β1 integrin activation by flow cytometry, TLNKO cells; format: cell-based
Protocol: To measure the level of β1 integrin activation, TLNKO cells were transfected in a 6-well plate for flow cytometry analysis. Cells were collected, washed, and resuspended in ice-cold staining buffer (1% BSA in PBS) before incubation with 9EG7 antibody (diluted 1:200 in staining buffer) for 1 h on ice. The cells were then washed three times with staining buffer. Alexa Fluor Plus 647 goat anti-rat (1:500 dilution in staining buffer, Invitrogen) secondary antibody was used to incubate the cells for 45 min on ice, before being washed twice with staining buffer and once with PBS. The cells were then fixed with 4% PFA for 15 min before a final wash with PBS. Flow cytometry analysis was performed using a Fortessa system (BD Biosciences) and FlowJo software.

TLNKO cells = experiment: cell spreading of TLNKO cells; format: cell-based; conditions: tensin3 expressed alone in TLNKO cells
Protocol: (§1) Cells were fixed in 4% paraformaldehyde (PFA, Sigma-Aldrich), which had been prewarmed to 37°C for 15 min before being washed three times with PBS. For immunofluorescence staining, cells were permeabilized with 0.5% Triton X-100 (Sigma-Aldrich) at room temperature for 5 min before being washed three times with PBS. Blebbistatin (Tocris Bioscience) was diluted in dimethyl sulfoxide (Sigma-Aldrich) and used at a final concentration of 50 μM. The following primary antibodies were diluted in 1% bovine serum albumin (BSA, Sigma-Aldrich): mouse anti-α5 integrin (SNAKA51, 1:100, NBP2-50146; Novus Biologicals), rat anti-β1 integrin (9EG7, 1:200; 553715; BD Biosciences), mouse anti-FN (IST-9, 1:100, ab6328; Abcam), rabbit anti-tensin3 (1:200, HPA055338; Atlas), mouse anti-EEA1 (1:500, 68065-1-IG; Proteintech), mouse anti-LAMP1 (1:200, ab320851; Abcam), mouse anti-paxillin (349, 1:400, mab3060; Sigma-Aldrich), rabbit anti-talin1 (1:200, 82856-4-RR; Proteintech), mouse anti-vinculin (hVin1, 1:500, V9264; Sigma-Aldrich), rabbit anti-KANK2 (1:100, HPA015643; Sigma-Aldrich), rabbit anti-kindlin2 (1:100, 11453-1-AP; Proteintech), rabbit anti-GIT1 (1:200, 26247-1-AP; Proteintech), mouse anti-phosphotyrosine (4G10, 1:200, 05-321X; Sigma-Aldrich), rabbit anti-G3BP1 (1:600, 13057-2-AP; Proteintech), rabbit anti-TDP43 (1:400, 10782-2-AP; Proteintech), and rabbit anti-GIGYF1 (1:400, ab121784; Abcam). […]

NIH3T3 cells [1] = experiment: tensin3 condensate formation, NIH3T3 cells; format: cell-based, mouse; conditions: n = 181 cells (WT), 168 cells (L702E)
Protocol: (§2) To establish a correlation between tensin3 expression and condensation formation, a maximum intensity Z-projection was performed on Z-stack images of NIH3T3 cells (step depth 0.2 μm). The integrated fluorescence intensity was measured by normalizing the mean pixel intensity of each cell to the average of all values in cells expressing mCh-TNS3. To measure the condensate coverage in NIH3T3 cells, the images were background-subtracted (rolling ball) and then thresholded. This was followed by the Analyse Particles function in FIJI/ImageJ to select round condensate structures (circularity 0.7–1.0) ([Bussi et al., 2023]; [Dumelie et al., 2024]) with a size larger than 0.1 μm^2. The same settings were applied to quantify the number of condensates in NIH3T3 and HFF cells.
The percentage of NIH3T3 cells transfected with mCh-TNS3 that form phase-separated condensates was quantified manually in images (610 × 499 μm) acquired with a 20× objective. To quantify the mean radius (R) of the condensates, the area covered by the condensates was divided by the number of condensates for each cell to obtain the mean size (A) of the condensates, followed by the formula of R = √(A/3.14).

[2] = test system: active β1 integrin, TLNKO cells; experiment: 9EG7-positive (active β1 integrin) adhesions, TLNKO cells; format: cell-based; conditions: co-expressed with GFP-TLN1, vs talin1 and vector control
Protocol: (§3) Cells were fixed in 4% paraformaldehyde (PFA, Sigma-Aldrich), which had been prewarmed to 37°C for 15 min before being washed three times with PBS. For immunofluorescence staining, cells were permeabilized with 0.5% Triton X-100 (Sigma-Aldrich) at room temperature for 5 min before being washed three times with PBS. Blebbistatin (Tocris Bioscience) was diluted in dimethyl sulfoxide (Sigma-Aldrich) and used at a final concentration of 50 μM. […]
(§4) Analysis of cell adhesion sites, FN fibrils, and LLPS condensates was performed using FIJI/ImageJ (version 1.54f) software ([Schindelin et al., 2012]). […] Prior to adhesion quantification, the images were background-subtracted using a rolling ball algorithm, followed by thresholding of adhesion sites and Analyse Particles functions in FIJI/ImageJ to quantify adhesions. Adhesion sites with sizes between 0.4 and 10 μm^2 were counted, except for adhesions in blebbistatin-treated cells, which were counted with sizes between 0.2 and 4 μm^2. […]

NIH3T3 cells [3] = experiment: client protein recruitment to tensin3 condensates; format: cell-based, mouse; conditions: co-expressed or endogenous
Source text: Since the observed tensin3 condensates were derived from adhesion sites in a talin-regulated mechanosensitive manner, we wondered whether these condensates contain other adhesion components or signaling molecules. To address this question, we examined a selection of cell–matrix adhesion proteins that have been reported by others to be present in LLPS condensates. These proteins include LIMD1 ([Wang et al., 2021]), kindlin2 ([Hsu et al., 2023]), talin ([Hsu et al., 2023]; [Litschel et al., 2024]), KANK ([Guo et al., 2023]), tensin1 ([Lee et al., 2023]), vinculin ([Litschel et al., 2024]), and GIT1 ([Zhu et al., 2020]). We added the actin regulatory RhoGAP DLC1 to this selection, as it is known to bind tensin ([Liao et al., 2006]; [Shih et al., 2015]), and the RNA regulatory protein GIGYF1, which we had previously identified alongside many of the aforementioned proteins in tensin BioID datasets ([Atherton et al., 2022]). We also added stress granule components G3BP1 ([Tourrière et al., […]]) and TDP-43 ([Colombrita et al., 2009]). These proteins were either co-expressed as fluorescently tagged proteins (Fig. S4 I) or, where antibodies were available, probed endogenously in cells that formed GFP-TNS3 condensates (Fig. 8 A).
as §1

NIH3T3 cells [4] = experiment: adhesion stability under blebbistatin, NIH3T3 cells; format: cell-based, mouse; conditions: blebbistatin 50 µM, 60 min; n = 64 (WT), 49 (L702E), 62 (ΔPTB), 71 (Cterm) cells
Protocol: as §3, §4

[5] = test system: active β1 integrin, U2OS TNS3KO cells; experiment: β1 integrin-positive adhesions, U2OS TNS3KO cells; format: cell-based, human; conditions: FN-coated, overnight; 9EG7
Protocol: as §3, §4

U2OS TNS3KO cells [6] = experiment: adhesion stability under blebbistatin, U2OS TNS3KO cells; format: cell-based, human; conditions: blebbistatin 50 µM
Protocol: as §1, §4

NIH3T3 cells [7] = experiment: condensates on soft vs stiff PDMS, NIH3T3 cells; format: cell-based, mouse; conditions: 1.5 kPa vs 28 kPa FN-coated PDMS, overnight
Protocol: Imaging dishes equipped with 40 µm-thick PDMS substrates (1.5 and 28 kPa) were purchased from ibidi. PDMS dishes were coated with 30 μg/ml FN for 1 h, followed by three washes with PBS. Dishes were incubated with DMEM for 10 min to equilibrate before cells were plated and incubated overnight at 37°C.
as §2

U2OS TNS3KO cells [8] = experiment: α5 integrin-positive FBs, rescue of TNS3KO cells; format: cell-based, human; conditions: FN-coated, overnight; SNAKA51 antibody
Protocol: as §3, §4

B1: TNS3-WT: wild-type tensin3 (Homo sapiens), N-terminally labeled with GFP or mCherry, expressed in cells (protein, UniProt Q68CZ2 1-1445, looked up)
chain: MEEGHGLDLTYITERIIAVSFPAGCSEESYLHNLQEVTRMLKSKHGDNYLVLNLSEKRYDLTKLNPKIMDVGWPELHAPPLDKMCTICKAQESWLNSNLQHVVVIHCRGGKGRIGVVISSYMHFTNVSASADQALDRFAMKKFYDDKVSALMQPSQKRYVQFLSGLLSGSVKMNASPLFLHFVILHGTPNFDTGGVCRPFLKLYQAMQPVYTSGIYNVGPENPSRICIVIEPAQLLKGDVMVKCYHKKYRSATRDVIFRLQFHTGAVQGYGLVFGKEDLDNASKDDRFPDYGKVELVFSATPEKIQGSEHLYNDHGVIVDYNTTDPLIRWDSYENLSADGEVLHTQGPVDGSLYAKVRKKSSSDPGIPGGPQAIPATNSPDHSDHTLSVSSDSGHSTASARTDKTEERLAPGTRRGLSAQEKAELDQLLSGFGLEDPGSSLKEMTDARSKYSGTRHVVPAQVHVNGDAALKDRETDILDDEMPHHDLHSVDSLGTLSSSEGPQSAHLGPFTCHKSSQNSLLSDGFGSNVGEDPQGTLVPDLGLGMDGPYERERTFGSREPKQPQPLLRKPSVSAQMQAYGQSSYSTQTWVRQQQMVVAHQYSFAPDGEARLVSRCPADNPGLVQAQPRVPLTPTRGTSSRVAVQRGVGSGPHPPDTQQPSPSKAFKPRFPGDQVVNGAGPELSTGPSPGSPTLDIDQSIEQLNRLILELDPTFEPIPTHMNALGSQANGSVSPDSVGGGLRASSRLPDTGEGPSRATGRQGSSAEQPLGGRLRKLSLGQYDNDAGGQLPFSKCAWGKAGVDYAPNLPPFPSPADVKETMTPGYPQDLDIIDGRILSSKESMCSTPAFPVSPETPYVKTALRHPPFSPPEPPLSSPASQHKGGREPRSCPETLTHAVGMSESPIGPKSTMLRADASSTPSFQQAFASSCTISSNGPGQRRESSSSAERQWVESSPKPMVSLLGSGRPTGSPLSAEFSGTRKDSPVLSCFPPSELQAPFHSHELSLAEPPDSLAPPSSQAFLGFGTAPVGSGLPPEEDLGALLANSHGASPTPSIPLTATGAADNGFLSHNFLTVAPGHSSHHSPGLQGQGVTLPGQPPLPEKKRASEGDRSLGSVSPSSSGFSSPHSGSTISIPFPNVLPDFSKASEAASPLPDSPGDKLVIVKFVQDTSKFWYKADISREQAIAMLKDKEPGSFIVRDSHSFRGAYGLAMKVATPPPSVLQLNKKAGDLANELVRHFLIECTPKGVRLKGCSNEPYFGSLTALVCQHSITPLALPCKLLIPERDPLEEIAESSPQTAANSAAELLKQGAACNVWYLNSVEMESLTGHQAIQKALSITLVQEPPPVSTVVHFKVSAQGITLTDNQRKLFFRRHYPVNSVIFCALDPQDRKWIKDGPSSKVFGFVARKQGSATDNVCHLFAEHDPEQPASAIVNFVSKVMIGSPKKV
modifications: full-length N-terminal GFP or mCherry tag
notes: wild-type tensin3 (Homo sapiens), N-terminally labeled with GFP or mCherry, expressed in cells
With B1 the “integrin activation, flow cytometry” value (β1 integrin, TLNKO cells; co-expressed with GFP-TLN1, vs mCh-vector, triplicate) was “increased integrin activation”, the “rescue of integrin activation” value (β1 integrin, TLNKO cells; tensin3 expressed alone in TLNKO cells, 9EG7) was “did not rescue cell spreading (Fig. S3 A) or integrin activation” and the “rescue of cell spreading” value (TLNKO cells) was “did not rescue cell spreading”. For the same molecule, the “Spearman's r, expression level vs condensate coverage” value (NIH3T3 cells [1]) was 0.8773, the “fold change in 9EG7-positive adhesion sites” value [2] was “fivefold increase in adhesion sites” and the “proteins detected in condensates” value (NIH3T3 cells [3]) was “talin1 and talin2, vinculin, tensin1, and LIMD1, together with the microtubule-targeting protein KANK1 and KANK2, and DLC1 and GIGYF1”. For the same molecule, the “proteins absent from condensates” value (NIH3T3 cells [3]; listed as GFP-TNS3) was “kindlin2 and GIT1, which regulate membrane protrusion ([Böttcher et al., 2017]; [Manabe et al., 2002]), were absent; also recorded: negative for G3BP1, TDP-43 (Fig. S4 J), or tyrosine phosphorylation”, the “construct-positive adhesions after blebbistatin” value (NIH3T3 cells [4]) was “largely remain after blebbistatin treatment” and the “rescue of adhesion formation” value [5] was “fully rescued adhesion formation”. For the same molecule, the “subcellular localization of construct under blebbistatin” value (U2OS TNS3KO cells [6]) was “remained in adhesion structures”, the “adhesion stability under actomyosin inhibition” value (U2OS TNS3KO cells [6]; 60 min) was “remained present despite actomyosin inhibition” and the “condensates on soft vs stiff substrate” value (NIH3T3 cells [7]) was “significant twofold increase”. For the same molecule, the α5 integrin-positive adhesions (U2OS TNS3KO cells [8]) was “α5 integrin-positive adhesions in the peripheral and central areas of the cells”.

Reference: publication PMC12637021, “Talin–tensin3 interactions regulate fibrillar adhesion formation and tensin3 phase separation” (The Journal of Cell Biology, 2025)
